Source: the DeepSol protein solubility set

experiment: soluble on expression in E. coli; label from the status in PepcDB or PDB records

Sequence | soluble on expression in E. coli
MGYLHIDGRGMKPNGGSRHNPLEAETIAAWLVAHKDDIERHYGEPLYKVVGVVTPFSAQVNAIKMSLRKLEINGKDEQGLLTVGTVHSLQGAERAIVLFSPVYSKHEDGRFLDSNSTILNVAVSRAKDSFLVFGDMDLIEMQPAFSPRGLLAKYLFSSDNNALQFEFQKRQDLISAHTQISTLHGVEQHDEFLNKTLAGAQKKITIISPWLSWQKVEQTGFLASMALARSRGIDITVVTDKNCNIAHVDDDKRQEKQHLLNDAVEKLNKMGIATKLVNRVHSKIVIEDEELLCVGSFNWFSATREDKYQRYDTSLVYRGEGVKNEIKAIYGSLDQRQLMGHHHHHHSH | not soluble
MGSDKIHHHHHHMQILLANPRGFCAGVDRAISIVERALELFGTPIYVRHEVVHNRYVVNGLRERGAIFIEQIEDVPDGAILIFSAHGVSQAVRNEAKNRDLTVFDATCPLVTKVHMEVARASKKGVEAILIGHAGHPEVEGTMGQYSNADGGMYLVESPDDVWQLQVKDEKNLCFMTQTTLSVDDTYAVIDALRERFPRIIGPRKDDICYATTNRQEAVRHLSDKADVVFVVGSKNSSNSNRLAELAQRAGKAAYLIDSADDIQESWLTGASYVGVTAGASAPDILVQQVIQRLKELGGKVAVEMQGREENIVFEVPKELRVEVKQID | not soluble
QWGAPEAQKMARDLRSFALSGGSIVSVRAGVWARDANDFIFIGKVEDDKLYALNMWRFDDDKNLEKVIFAEEVDYQQDNNWLMRDVQITNMQDENVISKQEMDQMEWHTSLAPDKLAVVTVKPEELSLSGLYDYVTYLKASEQDASRYELAFWRKLTQP | not soluble
MEKNRSAFQQNQQASNQPFNQDQNQYYQDPNQQQFNQSGFDPNQQQFNQPGFDPNQQYYQDPNQQQFNQAGFDQNQQYYQDPNQQQFNQPGFDPNQQYYQDPNQQQFNQAGFDQNQYYQDPNQQQFNQSGFDQNQYYQDPNQQQFNQPSFDLNNQQFNQPGFNQSPAFEITPQEQKAEQEMFGEEPPQVVREIHELPFEKIRSFLQSDFDSYNFRLNSLKSKLDNALYSLDKTIQNTNENTANLEAIRHNLEQKIQNQSKQLRTNFDTQKLDDKINELEIRMQKLTRNFESLSELSKHNSYPNYYEKLLPNGGDSMTNVFEKALMMNLLRTTLPPQPQVQYYPQPYPYIRPYYDEPIYAGFRRRGYRDDFYE | soluble
GMDISGRDVETRLTLAREFMSGVDELPTVPDIVLRIAGKLNDPDVAIDEVADLLLQDQVLTARVVHLANSPLYSAARPISSIRDAVIYLGLDLLREAIFTCAIVDLFKTGKGPLNRSTLWAHSLGVARIAKLIAERTGFLNPVNVYVAGLLHDVGEVFINFFRGKEFSQVVTLVDEEKITFGQAEERLFGTSHCEVGFALAKRWSLNEFICDTILYHHDIEAVPYKQAAIVAMVAFADEYCTLRRLGFEGHKPVDSVRTLLENHPSWGVIRRSLGGSDFDEKLIVAELDSSIVEIRAAVDELFLL | soluble
MPVEEKKKGMAIHSSLSLSLSLSLSLSLSLCDSEREG | not soluble
MGRKIVFFDIDGTLLDEQKQLPLSTIEAVRRLKQSGVYVAIATGRAPFMFEHVRKQLGIDSFVSFNGQYVVFEGNVLYKQPLRREKVRALTEEAHKNGHPLVFMDAEKMRASIGDHPHIHVSMASLKFAHPPVDPLYYENKDIYQALLFCRAEEEEPYVRNYPEFRFVRWHDVSTDVLPAGGSKAEGIRMMIEKLGIDKKDVYAFGDGLNDIEMLSFVGTGVAMGNAHEEVKRVADFVTKPVDKEGIWYGLKQLQLIR | soluble
MPEIIGKLLKSDGKVVSEIEKQVSQALIDLETNDDVQSQLKELYIVGVKEVELGNKSAIIIYVPVPQLKAFHKIHPALVRELEKKFGGRDILILAKRRILPKPQRGSKARPQKQKRPRSRTLTAVHDAWLDELVYPAEVVGRRIRVKLDGKKVYKVHLDKSHQTNVGHKIGVFASVYRKLTGKDVTFEFPDPIF | not soluble
TLANNRVRLLVNGEASFEAMFKAISAARQVILVQFFIVRDDALGQRLQQLLLERAANGVEVFFLYDAIGSHALPHRYVERLRQGGVQMHGFSTGSGMLNRFQVNFRNHRKVVVVDGECGFVGGHNVGVEYLGEKPPLAPWRDTHMELRGPAVACLQESFAEDWYWATHSLPPLILPPQYDSEGALCQVVASGPA | not soluble
MSLNPRPGKVVIYSEPDVSEKCIEVFSDIQDCSSWSLSPVILIKVVRGCWILYEQPNFEGHSIPLEEGELELSGLWGIEDILERHEEAESDKPVVIGSIRHVVQDYRVSHIDLFTEPEGLGILSSYFDDTEEMQGFGVMQKTCSMKVHWGTWLIYEEPGFQGVPFILEPGEYPDLSFWDTEAAYIGSMRPLKMGGRKVEFPTDPKVVVYEKPFFEGKCVELETGMCSFVMEGGETEEATGDDHLPFTSVGSMKVLRGIWVAYEKPGFTGHQYLLEEGEYRDWKAWGGYNGELQSLRPILGDFSNAHMIMYSEKNFGSKGSSIDVLGIVANLKETGYGVKTQSINVLSGVWVAYENPDFTGEQYILDKGFYTSFEDWGGKNCKISSVQPICLDSFTGPRRRNQIHLFSEPQFQGHSQSFEETTSQIDDSFSTKSCRVSGGSWVVYDGENFTGNQYVLEEGHYPCLSAMGCPPGATFKSLRFIDVEFSEPTIILFEREDFKGKKIELNAETVNLRSLGFNTQIRSVQVIGGIWVTYEYGSYRGRQFLLSPAEVPNWYEFSGCRQIGSLRPFVQKRIYFRLRNKATGLFMSTNGNLEDLKLLRIQVMEDVGADDQIWIYQEGCIKCRIAEDCCLTIVGSLVTSGSKLGLALDQNADSQFWSLKSDGRIYSKLKPNLVLDIKGGTQYDQNHIILNTVSKEKFTQVWEAMVLYTEGHHHHHH | not soluble
MGSDKIHHHHHHMKHEPLELGLKIEDAILVNEKLKDFVVYKSGKPRIDFKNKEAMKEYNIAILGHVFGLDMDFHEDALIPTPINRYLFIKNIFDEKDDIKDVLEIGTGSGIISILIAKYFECNVTATDTVSDYLKIAKDNISKNNLTSKINLIDSKGKIIFDIPELKNKKFDLIISYPPYYADNSVASKRSFGGAFASEVELIGGGAYGEVFSQKIIEEGMDHLNNGGIVAIMFPEKPFERRKFVEDKILELGLTLEKSEITTGKRIRHIIKAKKE | not soluble
MKARKAKEFVFNDLLSMESYCINHYSDYYSKSNFSCNVTQLSKGELVTSSICAPINDAHLEIFKSNQTILYEEEANQNSVAFCWINSNGEQAQTNTIISGHKMMDLSIAGFNRLNKTGGNVWDIVGANTQLCCMSLKWEKVKEKINQMNAYNAFAKLEECIGIDSNSSASIQLKSLFERHFTKGLRESEAFYDLAIATLEEPCDLEILTERSDKTELIEDLVKLLYEDREGMPPLTISEITKYLNTEKESLSIACRTNFDMPILDLIKSIRLEQVKKSYLNPHVPKGLKNFTKKQNALYYGFKNWTTFQKFYHQSFQESPDETINKSSKASVLVTDLFTRRS | not soluble
MSLVWLAELPDEILENLYPGEDVLYSVKKKLYTELKPKYLIVTDRRIIYLDQKILGRYDLIDIPYEKLEFVHFKKGKIGAKFIIRNEEGEEIVLTWMEKDEAEKAIEAIRDAINAIAVEPVSIQKRKGILGFELELSKPKEFITRTYPQAVAKAAPKEDPIERIRKLKELYESGVISREEFEEKKRKLLDQIEGHHHHHH | soluble
MSLADKRKHRFSVRYWLWRHTSLKRVAFCGRVAASAVASVGVRCSDGRAGFAGLQSCGSVWACPVCNAKIMARRGLELGAAVETWTKHGGRVAFMTFTVRHSRKDSLTAVWDGVASGWRRVTSGKGWTSDQLRHGVEGFVRVVEVTHGRNGWHVHLHVLVFLVGDFGDALALHRSMFGRWERGVLAAGLGTPLARAQDVQQMSAATGLDHLARYLSKAQFQGKIGHELTNSQSKTARSALSTRSTWEVLGDAANGLAKEVGLWFEWEKGSRGRRQIGWSAGLRDRLGLMVEESDDVIAAEEVGSVADTVALITGDGWRRLVGQQKLYECLRSCELGGQAGLARWLQEHGIEHELVEVDEGHHHHHH | soluble
MDGAGAEEVLAPLRLAVRQQGDLVRKLKEDKAPQVDVDKAVAELKARKRVLEAKELALQPKDDIVDRAKMEDTLKRRFFYDQAFAIYGGVSGLYDFGPVGCALKNNIIQTWRQHFIQEEQILEIDCTMLTPEPVLKTSGHVDKFADFMVKDVKNGECFRADHLLKAHLQKLMSDKKCSVEKKSEMESVLAQLDNYGQQELADLFVNYNVKSPITGNDLSPPVSFNLMFKTFIGPGGNMPGYLRPETAQGIFLNFKRLLEFNQGKLPFAAAQIGNSFRNEISPRSGLIRVREFTMAEIEHFVDPSEKDHPKFQNVADLHLYLYSAKAQVSGQSARKMRLGDAVEQGVINNTVLGYFIGRIYLYLTKVGISPDKLRFRQHMENEMAHYACDCWDAESKTSYGWIEIVGCADRSCYDLSCHARATKVPLVAEKPLKEPKTVNVVQFEPSKGAIGKAYKKDAKLVMEYLAICDECYITEMEMLLNEKGEFTIETEGKTFQLTKDMINVKRFQKTLYVEEVVPNVIEPSFGLGRIMYTVFEHTFHVREGDEQRTFFSFPAVVAPFKCSVLPLSQNQEFMPFVKELSEALTRHGVSHKVDDSSGSIGRRYARTDEIGVAFGVTIDFDTVNKTPHTATLRDRDSMRQIRAEISELPSIVQDLANGNITWADVEARYPLFEGQETGKKETIEELEHHHHHH | soluble
MGHHHHHHSHMSKESVTVAGIDCGTNSIRLKIARVDADGMHEVVPRILRVIRLGQDVDKTHRFADEALERAYVAAREFAGVIAEHPIDGLRFVATSATRDAENREEFEDEIERILGVRPEVIPGTEEADLSFLGATSVVNRDDLPAPYLVVDLGGGSTELVIGGDGVSAPTTQVQGAFSMNIGSVRMTERHLTNDPPTQTQIDEAVADVDEHIDEAFRTVDAGKARTIIGVSGTVTTMTALAMGLKEYDHTVVDGHRLSFEDAYAVDDKFLRMTRAERREYKTIHPGRIDVVGGGAVVWSRVLARVSEAAKADHGEAIDSFVASEHGLLDGIVLDYGRRLLAQ | soluble
PGAKVRVFHLLPFRREDLVPEEVLASVRDYLRTTKEQGLTMRVAMHGGNTEGDFSVSTAQALKGLFANEGIPLEFDETCANRTSETLLGAVILDDNSTHFIKHLVAQ | not soluble
MVERMERTMPTTAVRDATSSRRFQPGQAVVGRVERVEEMETEERAALVRAGGQLVRARLEAPLAVGRLYLFEIHERQGTIYWKAIPLSEPASAPSGEEAVRGWQKAWKLPDAALPVLRQALKAGAAATKEEIAALTEAVKETGQPDAAEDVLAHLFRRRLPFSSAVFRALWAAKTGVPLAEGLGKLKAAIAALSAHPAALKLIRAMEKFLSPPLSAYEAAVRLLLSGEEEAETARALLARLGLAPLPEDRRLALREAVQCRRFADIIRQLGLTDEEAFLERWAALDAAYQSGALPAAEAKLWAAARATRDPALSLFCWLRRAAVRLGLEDEAALVRVGKIEDLPSAPSLKRLLLRFLHESGSEGAKRAAEAILDQLDGMAIAAGGDGLIEHVWISFPLPLGGRSSDFAVCWQGRRKQGGPLDADYNRIVCCLTLEELGEVIVDMRVQRRIVHISIFHDDPRLAVAAARMAPLVKERFQAHGYALSGIDVKATRSAPPPPSVFLFADSCSEVDCQA | not soluble
AVTKLVLVRHGESQWNKENRFTGWYDVDLSEKGVSEAKAAGKLLKEEGYSFDFAYTSVLKRAIHTLWNVLDELDQAWLPVEKSWKLNERHYGALQGLNKAETAEKYGDEQVKQWRRGFAVTPPELTKDDERYPGHDPRYAKLSEKELPLTESLALTIDRVIPYWNETILPRMKSGERVIIAAHGNSLRALVKYLDNMSEEEILELNIPTGVPLVYEFDENFKPLKRYYLGNADEIAAKAAAVANQGKAK | soluble
MGSSHHHHHHSSGRENLYFQGHMLLHIPAIFTAEEVSRIRAALEQAEWADGKATAGYQSAKAKHNLQLPQDHPLAREIGEAMLQRLWNHPLFMSAALPLKVFPPLFNCYTGGGSFDFHIDNAVRDVHGGRERVRTDLSSTLFFSDPEDYDGGELVIQDTYGLQQVKLPAGDLVLYPGTSLHKVNPVTRGARYASFFWTQSLVREDSQRTLLFEMDQSIQRLTRDVPDHPSLIRLTGTYHNLLRRWSEL | soluble
